Laboratory results as given in patent US20050037448A1.

Experiments:
des-31,32-proinsulin [1] = target: des-31,32-proinsulin (UniProt P01308); experiment: competitive RIA, PEP001-coated tubes, 125I-Tyr-C-peptide; serum E1 overloaded with 0.16 pmol/ml des-31,32-proinsulin; no AC1D4
des-64,65-proinsulin [2] = target: des-64,65-proinsulin (UniProt P01308); experiment: competitive RIA, PEP001-coated tubes, 125I-Tyr-C-peptide; serum E1 overloaded with 0.67 pmol/ml des-64,65-proinsulin; competitor AC1D4 20 µg/ml
des-64,65-proinsulin [3] = target: des-64,65-proinsulin (UniProt P01308); experiment: competitive RIA, PEP001-coated tubes, 125I-Tyr-C-peptide; serum E2 overloaded with 0.67 pmol/ml des-64,65-proinsulin; no AC1D4
des-31,32-proinsulin [4] = target: des-31,32-proinsulin (UniProt P01308); experiment: competitive RIA, PEP001-coated tubes, 125I-Tyr-C-peptide; serum E1 overloaded with 0.67 pmol/ml des-31,32-proinsulin; competitor AC1D4 20 µg/ml
des-31,32-proinsulin [5] = target: des-31,32-proinsulin (UniProt P01308); experiment: competitive RIA, PEP001-coated tubes, 125I-Tyr-C-peptide; serum E2 overloaded with 3.33 pmol/ml des-31,32-proinsulin; competitor AC1D4 20 µg/ml
des-64,65-proinsulin [6] = target: des-64,65-proinsulin (UniProt P01308); experiment: competitive RIA, PEP001-coated tubes, 125I-Tyr-C-peptide; serum E2 overloaded with 0.16 pmol/ml des-64,65-proinsulin; competitor AC1D4 20 µg/ml
des-64,65-proinsulin [7] = target: des-64,65-proinsulin (UniProt P01308); experiment: sandwich immunoenzymatic C-peptide assay: PEP001 beads, goat polyclonal anti-C-peptide-alkaline phosphatase; no BC9B6
human proinsulin (human) [8] = target: human proinsulin (human) (UniProt P01308); experiment: as above
des-31,32-proinsulin [9] = target: des-31,32-proinsulin (UniProt P01308); experiment: as above
des-31,32-proinsulin [10] = target: des-31,32-proinsulin (UniProt P01308); experiment: competitive RIA, PEP001-coated tubes, 125I-Tyr-C-peptide; serum E2 overloaded with 0.67 pmol/ml des-31,32-proinsulin; competitor AC1D4 20 µg/ml
des-31,32-proinsulin [11] = target: des-31,32-proinsulin (UniProt P01308); experiment: competitive RIA, PEP001-coated tubes, 125I-Tyr-C-peptide; serum E2 overloaded with 0.16 pmol/ml des-31,32-proinsulin; competitor AC1D4 20 µg/ml
human proinsulin (human) [12] = target: human proinsulin (human) (UniProt P01308); experiment: sandwich immunoenzymatic C-peptide assay: PEP001 beads, goat polyclonal anti-C-peptide-alkaline phosphatase; no AC1D4
des-31,32-proinsulin [13] = target: des-31,32-proinsulin (UniProt P01308); experiment: as above
human proinsulin (human) [14] = target: human proinsulin (human) (UniProt P01308); experiment: competitive RIA, PEP001-coated tubes, 125I-Tyr-C-peptide; serum E2 overloaded with 0.67 pmol/ml proinsulin; competitor AC1D4 20 µg/ml
des-31,32-proinsulin [15] = target: des-31,32-proinsulin (UniProt P01308); experiment: competitive RIA, PEP001-coated tubes, 125I-Tyr-C-peptide; serum E1 overloaded with 3.33 pmol/ml des-31,32-proinsulin; no AC1D4
human proinsulin (human) [16] = target: human proinsulin (human) (UniProt P01308); experiment: competitive RIA, PEP001-coated tubes, 125I-Tyr-C-peptide; serum E1 overloaded with 0.16 pmol/ml proinsulin; no AC1D4
human proinsulin (human) [17] = target: human proinsulin (human) (UniProt P01308); experiment: competitive RIA, PEP001-coated tubes, 125I-Tyr-C-peptide; serum E1 overloaded with 3.33 pmol/ml proinsulin; competitor AC1D4 20 µg/ml
des-31,32-proinsulin [18] = target: des-31,32-proinsulin (UniProt P01308); experiment: competitive RIA, PEP001-coated tubes, 125I-Tyr-C-peptide; serum E1 overloaded with 0.67 pmol/ml des-31,32-proinsulin; no AC1D4
human proinsulin (human) [19] = target: human proinsulin (human) (UniProt P01308); experiment: competitive RIA, PEP001-coated tubes, 125I-Tyr-C-peptide; serum E1 overloaded with 3.33 pmol/ml proinsulin; no AC1D4
des-64,65-proinsulin [20] = target: des-64,65-proinsulin (UniProt P01308); experiment: sandwich immunoenzymatic C-peptide assay: PEP001 beads, goat polyclonal anti-C-peptide-alkaline phosphatase; competitor AC1D4 20 µg/ml
human proinsulin (human) [21] = target: human proinsulin (human) (UniProt P01308); experiment: as above
des-31,32-proinsulin [22] = target: des-31,32-proinsulin (UniProt P01308); experiment: as above
human proinsulin (human) [23] = target: human proinsulin (human) (UniProt P01308); experiment: competitive RIA, PEP001-coated tubes, 125I-Tyr-C-peptide; serum E1 overloaded with 0.67 pmol/ml proinsulin; no AC1D4
des-64,65-proinsulin [24] = target: des-64,65-proinsulin (UniProt P01308); experiment: competitive RIA, PEP001-coated tubes, 125I-Tyr-C-peptide; serum E1 overloaded with 0.67 pmol/ml des-64,65-proinsulin; no AC1D4
des-64,65-proinsulin [25] = target: des-64,65-proinsulin (UniProt P01308); experiment: sandwich immunoenzymatic C-peptide assay: PEP001 beads, goat polyclonal conjugate; competitors AC1D4 + BC9B6 in equal quantities, column head 2 µg/ml
human proinsulin (human) [26] = target: human proinsulin (human) (UniProt P01308); experiment: as above
des-31,32-proinsulin [27] = target: des-31,32-proinsulin (UniProt P01308); experiment: as above
des-64,65-proinsulin [28] = target: des-64,65-proinsulin (UniProt P01308); experiment: competitive RIA, PEP001-coated tubes, 125I-Tyr-C-peptide; serum E2 overloaded with 3.33 pmol/ml des-64,65-proinsulin; competitor AC1D4 20 µg/ml
human proinsulin (human) [29] = target: human proinsulin (human) (UniProt P01308); experiment: competitive RIA, PEP001-coated tubes, 125I-Tyr-C-peptide; serum E2 overloaded with 0.16 pmol/ml proinsulin; no AC1D4

PEP001 anti-C-peptide monoclonal antibody
Increase after overload (%) (des-31,32-proinsulin [1]): 8%
Increase after overload (%) (des-64,65-proinsulin [2]): 63%
Increase after overload (%) (des-64,65-proinsulin [3]): 9%
Increase after overload (%) (des-31,32-proinsulin [4]): 12%
Increase after overload (%) (des-31,32-proinsulin [5]): 6%
Increase after overload (%) (des-64,65-proinsulin [6]): 0%
percentage of cross reaction (des-64,65-proinsulin [7]): 94%
percentage of cross reaction (human proinsulin (human) [8]): 92%
percentage of cross reaction (des-31,32-proinsulin [9]): 108%
Increase after overload (%) (des-31,32-proinsulin [10]): 5%
Increase after overload (%) (des-31,32-proinsulin [11]): 0%
percentage of cross reaction (human proinsulin (human) [12]): 92%
percentage of cross reaction (des-31,32-proinsulin [13]): 108%
Increase after overload (%) (human proinsulin (human) [14]): 1%
Increase after overload (%) (des-31,32-proinsulin [15]): 213%
Increase after overload (%) (human proinsulin (human) [16]): 15%
Increase after overload (%) (human proinsulin (human) [17]): 31%
Increase after overload (%) (des-31,32-proinsulin [18]): 38%
Increase after overload (%) (human proinsulin (human) [19]): 288%
percentage of cross reaction (des-64,65-proinsulin [20]): 85%
percentage of cross reaction (human proinsulin (human) [21]): 8%
percentage of cross reaction (des-31,32-proinsulin [22]): 16%
Increase after overload (%) (human proinsulin (human) [23]): 56%
Increase after overload (%) (des-64,65-proinsulin [24]): 49%
percentage of cross reaction (des-64,65-proinsulin [25]): 48%
percentage of cross reaction (human proinsulin (human) [26]): 23%
percentage of cross reaction (des-31,32-proinsulin [27]): 65%
Increase after overload (%) (des-64,65-proinsulin [28]): 69%
Increase after overload (%) (human proinsulin (human) [29]): 1%
